# Measurements taken from the DeepSol protein solubility set.
# Experiment: soluble on expression in E. coli; label from the status in PepcDB or PDB records
row,Sequence,soluble on expression in E. coli
1,GNIATTPGDVVYRNRMMELIQYKPATDTVHEIPIVLFPPWINKFYILDLKAQNSFIKWVTEQGFTIFVVSWINPDASYADVGMEDYIQDGFLTAIDEVKKICKVKQVNAVGYCIAGTTLSLTLSLMKQTGDKSVKSATFFTALTDFSDQGEFTPFLQDDFIDGIEEEVTREGVLRSWIMARTFSYLRSNDLIYKPAIQSYMLGETPPAFDLLYWNGDGANLPAKMAVQYLRGLCQRNEFAGEGFDLMGHTLHVRDVDVPVMAITCETDHIAAWKDCYRGVQKMGSRSKTFVVSESGHIAGIVNPPSKKKYGHYTNPDLKDD,not soluble
2,GPGSMAALAALEKEVADLKRVRVFNETVRTGVERVLASLPSPENEKDTSTKVRILLLRSQATLLLPRVSREAEKDLNAALKLQPGSATTWVELSECLLRRNAFKEACDALDNALRVNPAHTEALCKYSQIQRNRCGGEGVTADQRKAYLEDAVAKARAAVGSNVDDADAWNTLALSLLSKVTLEGMTFDGVRKALAAMQQAERKCPEDPDVPYNKAVLESLLGHFGAAAMDYWRAHALDKDRLKGTRHLSEENAKVLLRAQSRMRTSSGIGKRDFQRICTRIEQAHKKYTQSTSAKVVGVLDIVTEPTMQPVTLLVSDGKGDFVLLLLHEVRPTCFKIGDVIAYPVTTPVETITHNIVACPGVEEEPLKLTLSHAYPNPKSILVNGQPLPSSAHVPLQMSSRLFA,soluble
3,GPGSMAVAAAAAAQTVAPRPPMQIGRADIAQMVASNPHVPTFSLPMNRQLEREFRTFRPVLIIAPLSTLPHWASEFQRFSRRHTAAAVSPCPGGVDAAERFTVYVLNGPRSERESRMGELLAHVERLTQQPPTPGGASGATPATPVVVIPHDMLTKPLRGALRQIRRVDWQVVAIDEAQRIKCARSFLFKKVCGLHSVSRRVLTGHTVADQHDGALPCSCAFRHRTRSSRVSCLSSWIAHCSPQVGRARWRIASCASSCAAVLIDFRCRSSCGVRGAS,soluble
4,GPGSMDLLGSQIAAALEEGSRKRKRDVEEGCSALVSHVNSTLDVITTDVRNTLTEQHCEMEERVNRLMKMAGDFATAVDTWQKKASDSVCAVESQQQLLWELLQDVEKRAQERKKEMLKRQEQRMEELRTMLLERIQKAEASMQL,not soluble
5,GPGSMDPLCSPSAVSINGTPQTSVVNTSSTTSVVASPARPKLNRSVKFDPTIGGPLHSGDLSLDTSFVHGAGGDADAREHYGRRGRADEAATDSPLYSGDVLHEHEELLPFQLTREDVAAAFEFLDVNGSGLLTMGNLKHRLSAFYPHLTSKEYKFLVEDPSGSTGGGGTASSAARSAVAARHGGAADGCGGSTGGPTTSSLAQAASSARPSNLSFDDGGDAVHANGALSGEGVASGVGGSNATSARAGLDVDQLWDLINSFQQLQRTFGAAQAGQAEGQNAQNTRSAFNSSFDAYLVGTHGTQGIRSADIGFDAVGEAFRIYDPHNTHYVEEEVLSCIMARVGFGELTEEELAVLVSTADFDGDGRISLEDFRRLVSMKGRFEK,soluble
6,GPGSMDSSAGALPATAHSSSNGAASIENVFAGLAWVRDLTDASLAAERVHNAFMQVVFSFVPEYDQDDDDDSATHRFVTAAERQKEAERDRRLREEARRELENLRNEPLSDAGDSGQRSDDEEDQRSEEANLADFETNEFMHWIEAGASDRFAAPRHEIDEKGLRDDPRVQVGADGAWQDYGVRSECNMSGATQGGARGAASAPRW,soluble
7,GPGSMDYPKKNQAAPAEGQTVRLTITSRNAKAVESVTSQLLTRARDEKVTIHGPVRLPTRTLKITTRKTPCGNGTNTWDTFELKIYKRIIDLHAPTEQVKKITSFTMESGVDVSITILDR,soluble
8,GPGSMEETVEHHFVEPNNISHMERHTAYATGPLDIDGGSSDSNCVLTAPSMTVTTSADGSSFVQLTEEDMQLMPEEQSISGGSYDETRTPESVNVVNS,not soluble
9,GPGSMEGPFLSRSIQYVERWLAEIVATKGTRAAATGSSEKAVAQKRGKATATAAAETGATSMSKCRFVVGRVNSVRPHPESQKLYIEEIDLGEEGGKCRTILSGLQEYVKQEDFLNRLVLVIANLEPRKIGGIPSEGMVLCASCNDEGSRSVVLLDVPEGTPVGERILFEGHEGPYEPVLKKKLAKHFEEVAAELRTNDKGEVVWRDMPFRTSCGIITASIPNGSVS,not soluble
10,GPGSMFHRAFVSSSDLTGCTIALSSVCTQKRYWAKPKKRPKVGQGFHEKAQKWREEYLLDRHRALADSLRAYVEFSTSKRVEPWDARFKPFDRIEKDGVYVLMRYMMEEKLQLCNYHHRPVKRLFCNIGLMGPQITTKARWKPYRFATNPAGTSKAERMYQRDKTVYTHGHND,not soluble
11,GPGSMFILADQLALPLPRSPLFFDVFDFSLEHTAMSQEAGCDTKGGGSTVTSVTAGTSGKHEETPVVTEDSSFVYACRLCRRILFTHEEIMPHSADSSSKGPKAFGRRGAPKQQSDQQNAGVCTSYFLNPDVSIWVAAESREAHCESGGTSVLPDTVYCPNNSCSAKIGTQSWVGSQCSCGVWVTPAFKIHGRAVDKLQSQ,not soluble
12,GPGSMFSLVRGLYSSIFADDTRKVLIVGLESSGKTTLSEQLKHMYATESSKNGANSSTTEENSGDATASEVNYNFPTPAPVESLRKKIRPTTGLNRSSVTHVTTPPQHETPNVSLTPLTTPLILWDIGGSLRPLWGNFFGTCHGVIFVVDSTLGEATSNGCSEGGRKTSPDQVGTSEDDESDVGAQPNSPIGDVREGERSQFLRKLYAKDALILRQMFSHPLLAGAPLLIVSNKVDAANHHTLVEIQDALRLVDVALMDEFYADDCVVGEPVYGELHRNGEGDYEGPPDRSAYDKLSNEKSFGGVATPPPGSSGIGNRVMRLVEMSALHGTGVVDGMNWLVAQMRDSGRQPLPDDGK,not soluble
13,GPGSMGADIVEVDVWRTSDGALILMHDETLDRTTNGTGRVCDHTLAEVRALRLKDGLGNMTEFTVPTVEEVLLLAKDRAILNLDKADVYLDELYPLLVKTGMVEQTILKSEIPFDELCKRYSADLLNRVIFMPILNITDTTTYKNIDRAFAANHALYEVNFEKENADVLQYIRKLAKNSGAALWINTIWPTTCGGYSDDHALRDKDANWGYVVDRIGAGIIQTDRPAMLLAYLQERGCR,not soluble
14,GPGSMGMSVTMINAIPLLRSMHANCVCPVCFEVFKKPVCFPCGHILCRACATRCIAARPRCPLCNQAVPNMRHCAPLPQLSLLCVLTREVGLRASGLQLRSSVQNAATPLSHRNHDSSMKRHRGATADDAVEETQGEHQAPRPRRSSLSPPPEQRPFLSLREPRASHRVANAVAATEGSTANHAQHTSLPELLRAAAGETQRLQSESPPPPLLMVGEGDDVLLGEAPHRSIIAQVTTSLPSAIAHRVGDSGALGRGQDQPPTPTPPPALSPSPAPFSTPLQLMCNHITDHADQLDSTPLLSPLPFTAFAVVEAASVTAAASVTHRSAQASSRVLATEHASNAKKASSWSLWRRGRGVIHCTLTPPAARLLARQSVVADGAGRGKTEAASKTASSSSAASADTAASLWHRFGCCALCGLDVVQRAAVRQRLQHLLRSPTAHCDPAELAMQTEESLSLLLGPLWGVCCEVQEHSTNIAQSQVSTCEGEYTTTELDAVQGSYCCPCRGEVTAHHVTGVAHHNCLAWAGLLDFFTNTSLEDLPAAAAAGVYFVPSMTASLHMTVPLQDPLGVLAARTSGRVARWQLLAATLCHMHQRDADEESELGKRVQTSGESGAEGPLMTPRCALCEDGAPLLASNSPSFPFGAGLRVCEGTERGESSCGQQYHYPCALLAGASACIIFGLEDECNVLDASASTPVRDRSAGGKRRGVERPVEVWCGVCHERHEVCRRRV,not soluble
15,GPGSMGRQKSRNLWNDGEGTKSVCRPQQVTVAKGWRVTPDLLPAKPLAPRRRKYAPIRPNNRDAVAIPLGGQSYNPLDEEHQEALAKAVRQLSKKKLKDEKFVKMMTMGRDKKYTGNLSADKTWEEEVQETEPATAKTPKKKRTKTAPASTGASSSAPSSAPSPVTHNGNKAKHEKVAAAPAAVAKNGKTAKKQKKKTKKATAEEAKRAMTHRRHPKRGVVAKETDELDVLLAAHKATACKREVARQKRRAAKKANLAIKHYGRHYHTPLVLDVTPSDKLVGSLRHLSGGYVHPALERMKSLEERNLVPARMRHTYNKRKVLKPKGEVRVKREEFGVMPMTGF,soluble
16,GPGSMGSKYDRVKVKVHLDDEHYYILSRFILSKMLTACKLPTTAAVCVSLALKKSLVDQERLDISQRELEAATLSTMAQHGYGAAFTRLLPVMTRFFIERTPLIVFMAGSGCCGKTSMARSLSVRLNTHNIVSTDLLLDILRATHHAYPSSALRGDLVELSDERVLPCVSEHSLWLSDTLAVDDFVRLWRTLTRAIRSLVEGEVEKALVEGKVLIVEGSLIDLSLYHNYLLDSFQSQRGVIAVAFHISSDEMSRNFAVERLVSTYRSVLPLSYTDNYNGALEWVQCRLRAIEGEHLRVLRGDSSAMQLHCIDDSLCDPATGDSTSVRDLSESYSNETSSTCDTRQLRLSQDNAEIVPVYGVTNSMAASSRVCESMHGLILDRIISALKQKGPLNLEHGNVVWCQAMDSEYMSPTNDT,not soluble
17,GPGSMKKFMLNTKASLGLVGEKTVDEDYNKRSASLKALNEALNEYSTAMDKAKHAMREVMHSLGKASKAFEKLNSGSCIPEPLKDFSEDFKKAIEHLQQYALQEFMNTMETTVIKTGHAIRADYEECVRVDQQRQKTVNEYDVYRSAVDKKETEYAKKGKDLKESKTYEEDTKTRDELKADYEASDKLFKSSHDALESNVVSKGRLCMREFFCCTSEFLSALSTEMKRLHEKSLLLGA,not soluble
18,GPGSMKKTVAAAPPKSPAPAKSKISVTRTGVNTTYPMPPPMPEKNYAPFFAEGCQTIAASKASMPPVQPASPLPPMHSAPPTASVVSNSIPPSSPATAPGERSPAVAARSVPTRFSPATVPRHHMNPNATEFMPGRRNGPDGGLEALPTSTADMELAKTPAGAAAAAVHAPSLPGAVRRSLQNSPIIQPSRLSVKSASEIEAISKNSALNAAAAAYVPQRTLARVVLTQPSPLALAPSEDPAKNNIEMMLDDLWCLFYLPTTLGENIKEEDYNPTLVFRVDSILTFWRVVNNIAAPSELQLSTLYLFRDGIDPKWEDPANRDGGIVKVKATAAQVDEAWELLLCRTIGDSWSPSVRETVNGVVLKVRERAYWLELWVTKNSSALQKDLAELWHPILGASFATTYLTHAMMQERSHAAAALAAEKQKKNRRRY,soluble
19,GPGSMKLLKFVNSDAPHTLADVQLRNQRLWFPCRHGNAAVAAKSWTLTAASPASVSGGYWLLDDDSQPICEITDVLLALPETAANAAGSSGTFAPRGVTDKDVDGIDFRSKMGRQMERERATYGATSKTATKSARTMMNAEEMTEKKNERMKREREAVAEAIEDNDASVMEPRKKERKHSKK,soluble
20,GPGSMLLMPFPLVPSPPPTRLSGHLTPVALVGVLVCASPRCAPKPRPRPWNASHTHTHTHTSPRPLIAHTVSLCVSVVRKHLFFFRRFLRLPPSPNRKRNQLTGAAMLTRRAVSSAVGAAMVTSSSVSMQRRYDHDRWYGHALELDTHNYKFNGEPPSWMKTRAKTEEETSFAKSVLPHIDFASSYECLLFDADRLNTNLNRKEFGNEIKYRLEKQANTVARAQQLLRDKKAGTGPDAEKVENTLIARIFDEEHVQAEMKYVKCIRANELAEDNRLDILPGGSPNSLREKTRWNLNTELHPADRAEIGARLTAWLPEKYHIVYFDDFQTVAANDATARKEMLEIVESVQKEYTAEAKEGGYESDLKEAVAELMDDVDPTRTITMEAIKSCKDLQQLEDWSRQVHEYNGDDRIIAIYARAAEITKNVEHQALVRQMREWRKLATKNESKL,not soluble
